Changes are numbered by the printed parent chain.
T1: Human NOTUM R144A/R145A (human, UniProt Q6P988 20-496)
T1 construct: Alanine mutant, expressed and secreted after transient transfection
T1 sequence: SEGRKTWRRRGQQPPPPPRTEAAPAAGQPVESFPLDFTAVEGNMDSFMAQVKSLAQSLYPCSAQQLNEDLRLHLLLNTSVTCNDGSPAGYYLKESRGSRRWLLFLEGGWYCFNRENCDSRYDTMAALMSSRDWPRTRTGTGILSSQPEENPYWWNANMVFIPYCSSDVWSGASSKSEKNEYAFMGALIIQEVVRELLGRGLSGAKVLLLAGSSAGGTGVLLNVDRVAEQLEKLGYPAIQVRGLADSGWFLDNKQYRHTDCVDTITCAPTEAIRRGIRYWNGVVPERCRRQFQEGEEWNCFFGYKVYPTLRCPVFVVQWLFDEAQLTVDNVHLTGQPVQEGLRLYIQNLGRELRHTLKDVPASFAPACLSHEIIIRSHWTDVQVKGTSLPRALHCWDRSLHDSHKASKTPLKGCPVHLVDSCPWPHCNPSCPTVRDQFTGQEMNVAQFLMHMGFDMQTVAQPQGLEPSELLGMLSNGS

T2: Guinea pig NOTUM (guinea pig, UniProt Q6P988 21-496 (human entry))
T2 construct: Expressed by transient transfection
T2 chain: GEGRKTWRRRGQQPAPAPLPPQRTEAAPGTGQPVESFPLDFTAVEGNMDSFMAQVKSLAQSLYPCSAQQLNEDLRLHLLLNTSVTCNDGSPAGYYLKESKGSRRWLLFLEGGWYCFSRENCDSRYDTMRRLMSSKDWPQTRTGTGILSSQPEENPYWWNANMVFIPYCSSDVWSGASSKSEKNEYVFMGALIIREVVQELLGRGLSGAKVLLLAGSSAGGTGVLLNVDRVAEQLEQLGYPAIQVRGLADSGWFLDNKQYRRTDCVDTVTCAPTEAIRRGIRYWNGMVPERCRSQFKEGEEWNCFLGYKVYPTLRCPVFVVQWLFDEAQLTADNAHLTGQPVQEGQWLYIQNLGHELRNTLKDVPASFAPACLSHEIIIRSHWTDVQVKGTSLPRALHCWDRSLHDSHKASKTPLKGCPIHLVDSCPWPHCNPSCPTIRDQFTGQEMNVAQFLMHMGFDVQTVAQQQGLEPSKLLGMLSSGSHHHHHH

T3: Human NOTUM D141S (human, UniProt Q6P988 20-496)
T3 construct: Point mutant made by transient transfection
T3 sequence: T1 sequence with D122S, A125R, A126R

T4: Human NOTUM (human, UniProt Q6P988 20-496)
T4 sequence: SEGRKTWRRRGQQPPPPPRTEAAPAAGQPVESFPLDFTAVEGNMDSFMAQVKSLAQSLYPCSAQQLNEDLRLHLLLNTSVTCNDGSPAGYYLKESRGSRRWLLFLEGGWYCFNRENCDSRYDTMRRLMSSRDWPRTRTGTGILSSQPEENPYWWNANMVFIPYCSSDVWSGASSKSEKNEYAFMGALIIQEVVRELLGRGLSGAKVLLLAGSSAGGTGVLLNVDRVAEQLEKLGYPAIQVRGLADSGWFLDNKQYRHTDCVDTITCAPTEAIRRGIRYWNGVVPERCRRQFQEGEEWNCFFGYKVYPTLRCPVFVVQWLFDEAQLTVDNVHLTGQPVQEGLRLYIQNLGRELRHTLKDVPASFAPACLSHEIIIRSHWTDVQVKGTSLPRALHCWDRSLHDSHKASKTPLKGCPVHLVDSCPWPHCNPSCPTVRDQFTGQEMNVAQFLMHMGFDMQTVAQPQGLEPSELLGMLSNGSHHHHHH

T5: M-H
T5 construct: Drawn on the sheet as mouse N-terminal part and human C-terminal part; Conditioned medium from transfected HEK293F; also called Mouse-human chimeric NOTUM
T5 single chain: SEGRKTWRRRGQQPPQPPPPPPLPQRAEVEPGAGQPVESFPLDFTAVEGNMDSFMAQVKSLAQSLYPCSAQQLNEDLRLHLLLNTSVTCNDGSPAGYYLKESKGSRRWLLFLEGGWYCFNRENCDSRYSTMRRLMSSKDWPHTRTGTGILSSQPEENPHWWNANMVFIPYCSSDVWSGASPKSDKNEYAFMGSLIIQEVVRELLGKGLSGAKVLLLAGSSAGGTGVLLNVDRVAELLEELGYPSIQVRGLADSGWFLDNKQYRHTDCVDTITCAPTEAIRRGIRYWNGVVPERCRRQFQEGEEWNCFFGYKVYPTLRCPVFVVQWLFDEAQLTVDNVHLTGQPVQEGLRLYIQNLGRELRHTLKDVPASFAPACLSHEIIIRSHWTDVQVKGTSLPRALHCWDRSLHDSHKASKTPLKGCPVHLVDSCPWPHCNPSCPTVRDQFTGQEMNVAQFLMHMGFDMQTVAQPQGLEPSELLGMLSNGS

B1: MAb 1.802 (antibody, V domains shown)
VH: EVQLVESGGGLVKPGGSLKLSCAASGFTFSDYGMHWFRQAPEKGLEWVAYISSGSRTVYYADTVKGRFTISRDNAKNTLSLQMTSLRSEDTAMYYCARKHYNGGYFDVWGTGTTVTVSS
VL: DIVLTQSPASLAVSLGQRATISCRASKIVSTSGYSYMHWYQQKPGQPPKLLIYLASNLESGVPARFSGSGSGTDFTLNIHPVEEEDAATYYCQHSRELPPTFGSGTKLEIKR
notes: Mouse monoclonal antibody from Campaign 1 (raised against human NOTUM), IgG1
B2: MAb 1.815 (antibody, IgG1, V domains shown)
VH: DVQLLESGGGLVQPGGSRKLSCAASGFTFSDFGMHWVRQAPEKGLEWVAYSSSGGTTVYYADTVKGRLTLSRDNSKNTLFLEMTSLRSEDTAMYYCARASYDGGYFDCWGQGTSLTVSS
VL: B1 VL with I28S, M37I, N57D, T73A, D74A, Q93H, P100F
notes: Mouse monoclonal antibody from Campaign 1, IgG1
B3: MAb 1.846 (antibody, IgG2b, V domains shown)
VH: B1 VH with G10D, F37L, R56T, V58L, Y59S, D62N, V64M, N77K, M93I, H100N
VL: B1 VL with A12V, I28S, T31E, E85G, A88T, E97V
notes: Mouse monoclonal antibody from Campaign 1, IgG2b

Biological target: T1, Human NOTUM R144A/R145A
Experiment: ELISA

Binder	binding result
B1	no binding
B2	no binding
B3	no binding

Biological target: T2, Guinea pig NOTUM
Experiment: ELISA

Binder	binding result
B1	binds
B2	binds
B3	binds

Biological target: T3, Human NOTUM D141S
Experiment: ELISA

Binder	binding result
B1	no binding
B2	no binding
B3	no binding

Biological target: T4, Human NOTUM
Experiment: cell-based or functional assay

Binder	OPTS IC50 (nM; human NOTUM)	Wnt signaling IC50 (nM; human NOTUM)
B1	6.44 nM	5.71 nM
B2	7.62 nM	6.88 nM
B3	10.1 nM	1.7 nM

Biological target: T5, M-H
Experiment: ELISA on conditioned medium of HEK293F transfected with the NOTUM construct (Example 6.7)
Description: The sequences of those proteins are shown in Section 7 (Table of Sequences). The conditioned media were used in ELISA format to determine antibody specificity. […] Within this region, mouse and human NOTUM differ at five positions (R115K, D141S. R150K, R154H, and Y171H, based on the human sequence numbering). Human NOTUM point mutants were generated by transient transfection of constructs expressing human NOTUM with the mouse amino acid at each of these five positions and the point mutants were all shown to be functional in the OPTS assay.

Binder	binding result
B1	no binding
B2	no binding
B3	no binding

Reference: patent US20130302346A1 (LEXICON PHARMACEUTICALS, published 2013)
